The chains are these.
B1: Chaetomium thermophilum CtIsu1-His6 (natural protein)
chain: MFSKTARAVSSRALASPLWSTAIPVTRPLSCQLAWPQTRQYHEKVLDHYSRPRNVGSLDKTDKSVGEGLVGAPACGDVMRLHIKVDPETKVISDVRFKTFGCGSAIASSSYLTELVRGMTLEQAAQVKNTQIAKELCLPPVKLHCSMLAEDAIKSAINNYYKKNPEARPTNLAGRGNNKLETASQSTQ
B2: E. coli acyl carrier protein (ACP) (natural protein, UniProt P0A6A8 1-78, looked up)
chain: MSTIEERVKKIIGEQLGVKQEEVTNNASFVEDLGADSLDTVELVMALEEEFDTEIPDEEAEKITTVQAAIDYINGHQA
modifications: Ser36-linked phosphopantetheine with attached fatty acyl chain (12 carbons modelled; 14 carbons by mass spectrometry of dissolved crystals)
notes: E. coli acyl carrier protein; the acyl chain length is said to depend on the growth medium; also called E. coli ACP; A of (NIA)2; source: endogenous E. coli protein, co-purified with NFS1-ISD11 expressed in E. coli
B3: Chaetomium thermophilum CtNfs1 (enzyme)
chain: MANLAPSVLRQASRLATRSSSSTSSLFAAAPRRAATLLSRRAAIAPATHAHPSRRASRSYVTDTKADNAQAQTEAAVRLDSQELEKAEKSVPSFEAQNGSTTHVSPMADILKGATRMGEGQRPIYLDMQATTPVDPRVLDAMLPYYVGIFGNPHSRTHAYGWETERAVEKAREHIAALIGADPKEIIFTSGATESNNMSIKGVARFFGRTGKKRHIITSQTEHKCVLDSCRHLQDEGYEVTYLPVNNKGLINLDELRDAIRPDTALVSIMAVNNEIGVIQPIAEIGKICREKKVFFHTDGAQAVGKIPIDVNAMNIDLMSISSHKIYGPKGIGACYVRRRPRVRIEPIISGGGQERGLRSGTLAPALVVGFGEACRIAKEELEYDLKHVKRLSERLLKGVLSIECTHQNGDPENGYPGCVNVSFAYVEGESLLMALNDVALSSGSACTSASLEPSYVLRALGNSDENAHSSIRFGIGRFTTEAEIDYVVKAVQDRVGFLRELSPLWELVQEGVDLNTIEWTQH

Where two headings read alike, the source gives them in different places.

Series [1] concerns the target B3. Put plainly: SAXS; complexes of NFS1 with ISCU, FDX2 (reduced with dithionite) and/or frataxin mixed in 1:1, 1:1:1 ratios in buffer S1 in an anaerobic chamber, after size exclusion chromatography; rigid body modelling.
Series [2] concerns the target human NFS1 of the NFS1-ISD11(-His10) complex for biochemistry and SAXS (human). Put plainly: SAXS; (NIA)2 complexes incubated with cysteine (buffer S1 with 5 mM Cys: 35 mM Tris-HCl pH 7.4, 150 mM NaCl), after size exclusion chromatography. (In general: In gel filtration, larger molecules generally elute earlier.)
The target of series [3] is T1, human ISD11, full length, no tag (human, UniProt Q9HD34 1-91).
T1 construct: human ISD11 (LYRM4), full length, plasmid pZM4; also called LYRM4; I of (NIA)2 and (NIAU)2; source: E. coli One Shot BL21 Star (DE3), co-expressed with NFS1, co-purified (Ni-NTA)
In words: crystal structure; (NIA)2 complex, 2.75 Å, space group R32; crystals from 100 mM MES pH 6.5, 0.3 M ammonium acetate, 20 mM calcium acetate, 20 mM CaCl2, 19% isopropanol, 12 °C. The conditions noted are these: both partners purified.

The target of series [4] is T2, human ISD11-His10 (human, UniProt Q9HD34 1-91).
T2 construct: human ISD11 (LYRM4); source: E. coli, co-expressed with NFS1, purified (Ni-Sepharose, gel filtration)
In words: affinity purification with mass spectrometry; NFS1-ISD11(-His10) purified by Ni-Sepharose and gel filtration from E. coli grown in TB (energy-rich) medium; Orbitrap mass spectrometry of the trypsin-digested purified solution. The conditions noted are these: partners not purified.

Series [5] concerns the molecule itself. In words: SAXS; (NIA)2 complexes incubated with cysteine (buffer S1 with 5 mM Cys: 35 mM Tris-HCl pH 7.4, 150 mM NaCl), after size exclusion chromatography.

T1 sequence (Q9HD34 whole entry): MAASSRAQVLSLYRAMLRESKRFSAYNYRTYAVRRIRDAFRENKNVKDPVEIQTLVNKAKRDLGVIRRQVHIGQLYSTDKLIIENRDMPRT
T2 sequence (Q9HD34 whole entry): as above

With “Chaetomium thermophilum CtFdx2 (reduced ferredoxin) (natural protein)”, the stoichiometry N (in general, the number of molecules, sites or subunits per partner or assembly) in series [1] is 1.

In series [2], “human NFS1 of the NFS1-ISD11(-His10) complex for biochemistry and SAXS (enzyme)” had a stoichiometry N of 2. For the molecule B1, the “stoichiometry N” value in series [1] (both partners purified) was 1. In the case of B2, the binding result in series [3] and in series [4] was “binds” throughout. Take B3: the “stoichiometry N” value in series [5] came to 2.

These data come from paper PMC5668364, “Structure and functional dynamics of the mitochondrial Fe/S cluster synthesis complex” (Nature Communications, 2017).
